# Measured values as given in patent US20100151566A1.
# Key:
# [1] = target: Isoform 121 of human VEGF-A (Peprotech) (human) (UniProt P15692); experiment: ELISA on coated antigen, 2 µg/mL, 9E10 detection
# [2] = target: Isoform 121 of human VEGF-A (Peprotech) (human) (UniProt P15692); experiment: ELISA on coated antigen, 20 µg/mL, 9E10 detection
# [3] = target: Isoform 121 of human VEGF-A (Peprotech) (human) (UniProt P15692); experiment: ELISA on coated antigen, 0.2 µg/mL, 9E10 detection
# [4] = target: Isoform 121 of human VEGF-A (Peprotech) (human) (UniProt P15692); experiment: phage ELISA on native VEGF-A 121
# [5] = target: Human VEGF-A treated with DTT (reduced) (human) (UniProt P15692); experiment: phage ELISA on DTT-reduced VEGF-A 121
# [6] = target: Isoform 121 of human VEGF-A (Peprotech) (human) (UniProt P15692); experiment: phage ELISA on coated VEGF-A 121, without KDR-Fc
# [7] = target: Isoform 121 of human VEGF-A (Peprotech) (human) (UniProt P15692); experiment: phage ELISA on coated VEGF-A 121, competitor KDR-Fc 2 µg/mL
# Isoform 121 of human VEGF-A (Peprotech) (human), sequence (P15692 other isoform, or with tags, fused parts or gaps): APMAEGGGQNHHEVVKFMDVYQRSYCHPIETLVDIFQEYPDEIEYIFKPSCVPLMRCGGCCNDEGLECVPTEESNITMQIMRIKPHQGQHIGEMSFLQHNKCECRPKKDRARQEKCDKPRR
# Human VEGF-A treated with DTT (reduced) (human), sequence (P15692 other isoform, or with tags, fused parts or gaps limits assumed): as the sequence (P15692 other isoform, or with tags, fused parts or gaps) above
Binder,Optical Density (492 nm) [1] [OD 492 nm],Optical Density (492 nm) [2] [OD 492 nm],Optical Density (492 nm) [3] [OD 492 nm],Optical Density (492 nm) [4] [OD 492 nm],Optical Density (492 nm) [5] [OD 492 nm],Optical Density (492 nm) [6] [OD 492 nm],Optical Density (492 nm) [7] [OD 492 nm]
"Fab 2H1-32 (Fab, V domains shown) VH: QVQLVQSGAEVKKPGESLKISCKGSGYSFTSYWIGWVRQMPGKGLEWMGIIYPGDSDTRYSPSFQGQVTISADKSISTAYLQWSSLKASDTAMYYCARLVVRDTEIWGQGTMVTVSS VL: QAVVTQEPSLTVSPGGTVTLTCASSIGAVTSGNYPNWFQQRPGQPPRALIYSTSNKHSWTPARFSGSLLGGKAALTLSGAQPEDEAEYYCLLSYSGARPVFGGGTKLTVLG",1.09,1.02,0.675,,,,
"phage clone 2H1-F (scFv, not shown: large carriers; small tags and cut ends) scFv: QQVQLVQSGAEVKKPGESLKISCKGSGYSFTSYWIGWVRQMPGKGLEWMGIIYPGDSDTRYSPSFQGQVTISADKSISTAYLQWSSLKASDTAMYYCARLVVRDTEIWGQGTMVTVSSAPQAKSSGSGSESKVDQAVVTQEPSLTVSPGGTVTLTCASSIGAVTSGNYPNWFQQRPGQPPRALIYSTSNKHSWTPARFSGSLLGGKAALTLSGAQPEDEAEYYCLLSYSGARPVFGGGTKLTVLG",,,,1.25,0.103,1.15,0.577
